Experiment in all cases: HerDox cytotoxicity dose curves (metabolic assay, crystal violet)
Holding throughout (assay type): cell-based, human

One assay deals with MDA-MB-231. Conditions: MDA-MB-231, low HER2; day 3; read-out: CD50 (the source's name). As to the method: (§1) FIG. 21 depicts, in accordance with an embodiment herein, toxicity to cells displaying differential HER2. Cytotoxicities from a range of HerDox doses were assessed on each cell line by metabolic assay and confirmed by crystal violet stain. CD50 values (shown in log scale) were determined by non-linear regression analyses of HerDox dose curves using a scientific graphing program (GraphPad Prism) and confirmed with an on-line calculator (Chang bioscience). The relative HER2 level of each cell line is shown next to each CD50 value.
(§2) All treatments, N=3. FIG. 27A. Comparing cytotoxicity to HER2+ (MDAMB-435) and HER2− (MDA-MB-231) cells in separate cultures. Left, Relative survival (as % of untreated cells) on day 3 of treatment. Right, Micrograph of live cells after treatment. Control, mock (HBS) treatment. FIG. 27B, Receptor specificity of cytotoxicity. […] FIG. 27C, Toxicity to cells displaying differential HER2. Cytotoxicities from HerDox titrations were assessed on each cell line by metabolic assay and confirmed by crystal violet stain on day 3 of treatment. CD50 values (shown in log scale) were determined by non-linear regression analyses of HerDox killing curves using GraphPad Prism. The relative HER2 level of each cell line is shown next to each CD50 value. […] Survival was determined by calculating the relative doubling time (DT) of experimental (exp) cells normalized by mock-treated (con) cells based on crystal violet stains (total cells) and GFP fluorescence (MDAMB-231 cells), and applying DTMDA-MB-435=DTTotal-DTMDA-MB-231 as previously described. […] U251 cells were treated once with the indicated HerDox (and competitive inhibitor where indicated) or Dox doses and measured for cell survival at the indicated time points after treatment. * P<0.05 compared to Mock. […]
(§3) To assess the contribution of HER2 to therapeutic efficacy in vitro, we determined HerDox CD50 on selected human tumor lines displaying HER2 at relatively high (SKBR3), moderate (MDA-MB-435, MDAMB-453, HeLa), and low to undetectable (MDA-MB-231) levels, according to our receptor subunit profiling of a cell line panel.

Assay [1] deals with MDA-MB-435, MDAMB-453, HeLa. The conditions noted are these: intermediate HER2 levels; day 3; read-out: CD50 (the source's name). How it is done: as §1, §2, §3
The subject of another assay is SKBR3. Conditions: SKBR3, high HER2; day 3; read-out: CD50 (the source's name). As to the method: as §1, §2, §3

B1: HerDox: self-assembled nanoparticle of oligonucleotide duplex, doxorubicin and HerPBK10 (conjugate)
chain: LPPRLKEMKSQESAAGSKLVLRCETSSEYSSLRFKWFKNGNELNRKNKPQNIKIQKKPGKSELRINKASLADSGEYMCKVISKLGNDSASANITIVESNEIITGMPASTEGAYVSSESPIRISVSTEGANTSSSTSTSTTGTSHLVKCAEKEKTFCVNGGECFMVKDLSNPSRYLCKCQPGFTGARCTENVPMKVQNQEKAEELYMRRAAMYEEGPPPSYESVVSAAPVAAALGSPFDAPLDPPFVPPRYLRPTGGRNSIRYSELAPLFDTTRVYLVDNKSTDVASLNYQNDHSNFLTTVIQNNDYSPGEASTQTINLDDRSHWGGDLKTILHTNMPNVNEFMFTNKFKARVMVSRLPTKDNQVELKYEWVEFTLPEGNYSETMTIDLMNNAIVEHYLKVGRQNGVLESDIGVKFDTRNFRLGFDPVTGLVMPGVYTNEAFHPDIILLPGCGVDFTHSRLSNLLGIRKRQPFQEGFRITYDDLEGGNIPALLDVDAYQASLKDDTEQGGGGAGGSNSSGSGAEENSNAAAAAMQPVEDMNDHAIRGDTFATRAEEKRAEAEAAAEAAAPAAQPEVEKPQKKPVIKPLTEDSKKRSYNLISNDSTFTQYRSWYLAYNYGDPQTGIRSWTLLCTPDVTCGSEQVYWSLPDMMQDPVTFRSTRQISNFPVVGAELLPVHSKSFYNDQAVYSQLIRQFTSLTHVFNRFPENQILARPPAPTITTVSENVPALTDHGTLPLRNSIGGVQRVTITDARRRTCPYVYKALGIVSPRVLSSRTFKKKKKKKKKK
In the case of B1, the IC50 was > 8 µM in the assay with MDA-MB-231, 300 to 800 nM in assay [1] and 56 ± 17 nM in the assay on SKBR3.

For the origin of these results see patent US11795454B2, “Targeted delivery system” (Cedars-Sinai Medical Center, priority 2009, dated 2023).
